# ± gives the uncertainty stated by the source.
# Test: protein stability index of a GFP-peptide fusion (yeast GPS) (PSI 1-4); higher = more stable; sorted into four equal gates, so the index is relative within each strain
# How it was run: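 Plasmids isolated from each sorting gate were PCR-amplified and Illumina-sequenced, and barcodes assigned the reads to strains. The gates, four of equal size, were set by GFP/Cherry fluorescence ratio on mid-log cultures in leucine-free medium. These cultures were yeast carrying a pooled library of tiled 17-residue yeast protein peptides fused downstream of GFP on a plasmid that also expresses Cherry. The protein stability index is the sum of every gate's read frequency times its gate number.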
sequence,measurement,setting,value
NWRGREHWKVRNFKKAN [BRN1],protein stability index,doa10∆,3.43 ± 0.12
same,protein stability index,pdr5∆,3.36 ± 0.12
same,protein stability index,san1∆,3.52 ± 0.075
same,protein stability index,ubr1∆,3.49 ± 0.1
NWSKEDLQKLLKGIQEF [SWI3],protein stability index,doa10∆,3.27 ± 0.068
same,protein stability index,pdr5∆,3.07 ± 0.057
same,protein stability index,san1∆,3.09 ± 0.05
same,protein stability index,ubr1∆,3.33 ± 0.055
NYASVYPVVEVERGRVG [RRP43],protein stability index,doa10∆,3.48 ± 0.14
same,protein stability index,pdr5∆,3.57 ± 0.11
same,protein stability index,san1∆,3.43 ± 0.093
same,protein stability index,ubr1∆,3.42 ± 0.056
NYEDVGRFLRVPKEGLF [BRR2],protein stability index,doa10∆,3.42 ± 0.076
same,protein stability index,pdr5∆,3.5 ± 0.11
same,protein stability index,san1∆,3.42 ± 0.078
same,protein stability index,ubr1∆,3.49 ± 0.064
NYEIVFDTVSNKLFTEP [YMR129W/POM152],protein stability index,doa10∆,2.97 ± 0.055
same,protein stability index,pdr5∆,3.02 ± 0.06
same,protein stability index,san1∆,2.88 ± 0.055
same,protein stability index,ubr1∆,3.03 ± 0.032
NYIINDIKKNNKIKLNI [SRB8],protein stability index,doa10∆,3.16 ± 0.096
same,protein stability index,pdr5∆,3.1 ± 0.16
same,protein stability index,san1∆,3.04 ± 0.2
same,protein stability index,ubr1∆,3.35 ± 0.2
NYNSTSRSTEKKNDMNT [SIR4],protein stability index,doa10∆,2.33 ± 0.061
same,protein stability index,pdr5∆,2.48 ± 0.058
same,protein stability index,san1∆,2.61 ± 0.079
same,protein stability index,ubr1∆,2.55 ± 0.049
NYTKDNEYYPMCEQALS [YCS4],protein stability index,doa10∆,2.25 ± 0.066
same,protein stability index,pdr5∆,2.61 ± 0.087
same,protein stability index,san1∆,2.6 ± 0.071
same,protein stability index,ubr1∆,2.47 ± 0.052
NYVAVGDVSNLPYLDEL [QCR2],protein stability index,doa10∆,3.13 ± 0.087
same,protein stability index,pdr5∆,3.19 ± 0.096
same,protein stability index,san1∆,2.97 ± 0.099
same,protein stability index,ubr1∆,3.18 ± 0.051
NYYSNKSNSTGNISSST [REC8],protein stability index,doa10∆,2.79 ± 0.1
same,protein stability index,pdr5∆,3.02 ± 0.099
same,protein stability index,san1∆,2.85 ± 0.059
same,protein stability index,ubr1∆,3.09 ± 0.064
NYYYLFDKKSFFNGKAL [PRP8],protein stability index,doa10∆,2.55 ± 0.046
same,protein stability index,pdr5∆,2.16 ± 0.043
same,protein stability index,san1∆,2.91 ± 0.055
same,protein stability index,ubr1∆,2.38 ± 0.037
PAFSFGISNGSESKDSD [YLR335W/NUP2],protein stability index,doa10∆,3.23 ± 0.093
same,protein stability index,pdr5∆,3.05 ± 0.11
same,protein stability index,san1∆,3.12 ± 0.063
same,protein stability index,ubr1∆,3.08 ± 0.088
PAFSFNSSVGNKTDAQA [YJL041W/NSP1],protein stability index,doa10∆,2.82 ± 0.14
same,protein stability index,pdr5∆,3.47 ± 0.11
same,protein stability index,san1∆,2.85 ± 0.1
same,protein stability index,ubr1∆,3.16 ± 0.085
PAFSNSNGFNNVTFGSK [YMR153W/NUP53],protein stability index,doa10∆,2.68 ± 0.054
same,protein stability index,pdr5∆,2.96 ± 0.067
same,protein stability index,san1∆,3.1 ± 0.037
same,protein stability index,ubr1∆,3.13 ± 0.048
PAFTFGAQKDNEKKTEE [YJL041W/NSP1],protein stability index,doa10∆,3.35 ± 0.2
same,protein stability index,pdr5∆,2.64 ± 0.28
same,protein stability index,san1∆,3.11 ± 0.26
same,protein stability index,ubr1∆,3.46 ± 0.2
PAGTSLFGNNAGNTTTG [YGL172W/NUP49],protein stability index,doa10∆,2.98 ± 0.16
same,protein stability index,pdr5∆,3.24 ± 0.088
same,protein stability index,san1∆,2.88 ± 0.11
same,protein stability index,ubr1∆,3.24 ± 0.084
PAPINSLSRDFVMKTRR [SNU114],protein stability index,doa10∆,3.15 ± 0.081
same,protein stability index,pdr5∆,2.95 ± 0.064
same,protein stability index,san1∆,2.97 ± 0.049
same,protein stability index,ubr1∆,3.15 ± 0.051
PCLSRSCTKCPQIVVPD [DIS3],protein stability index,doa10∆,2.42 ± 0.034
same,protein stability index,pdr5∆,2.56 ± 0.031
same,protein stability index,san1∆,2.63 ± 0.033
same,protein stability index,ubr1∆,2.57 ± 0.03
PDFKPWEHTAAEDQILA [SRB8],protein stability index,doa10∆,2.83 ± 0.12
same,protein stability index,pdr5∆,2.95 ± 0.12
same,protein stability index,san1∆,3.03 ± 0.075
same,protein stability index,ubr1∆,3.02 ± 0.091
PDGSFEDWSVEELIVDL [RPO26],protein stability index,doa10∆,3.42 ± 0.17
same,protein stability index,pdr5∆,2.06 ± 0.16
same,protein stability index,san1∆,3 ± 0.13
same,protein stability index,ubr1∆,2.84 ± 0.081
PDGVVVHRDDPALVGKL [SNF6],protein stability index,doa10∆,3.3 ± 0.071
same,protein stability index,pdr5∆,3.49 ± 0.071
same,protein stability index,san1∆,3.36 ± 0.054
same,protein stability index,ubr1∆,3.33 ± 0.053
PEDAQLLLAANTHLGAR [RPS0A],protein stability index,doa10∆,1.63 ± 0.058
same,protein stability index,pdr5∆,1.39 ± 0.052
same,protein stability index,san1∆,1.63 ± 0.12
same,protein stability index,ubr1∆,1.9 ± 0.068
PEELARILQQLKLDKII [RGR1],protein stability index,doa10∆,2.51 ± 0.059
same,protein stability index,pdr5∆,1.49 ± 0.05
same,protein stability index,san1∆,3.15 ± 0.076
same,protein stability index,ubr1∆,2.72 ± 0.063
PEGLLKSLWDYVKKNTE [TAF14],protein stability index,doa10∆,3.01 ± 0.17
same,protein stability index,pdr5∆,2.12 ± 0.076
same,protein stability index,ubr1∆,3.13 ± 0.094
PEILRFKVYEPLLLVGL [RPS16A],protein stability index,doa10∆,2.01 ± 0.12
same,protein stability index,pdr5∆,2.31 ± 0.098
same,protein stability index,san1∆,2.1 ± 0.18
same,protein stability index,ubr1∆,2.65 ± 0.068
PESIDTILSSKLSNIWM [SRB2],protein stability index,doa10∆,2.72 ± 0.08
same,protein stability index,pdr5∆,2.78 ± 0.095
same,protein stability index,san1∆,2.92 ± 0.054
same,protein stability index,ubr1∆,2.91 ± 0.042
PETGDHVVGRIAEVGNK [RRP4],protein stability index,doa10∆,3.27 ± 0.076
same,protein stability index,pdr5∆,3.44 ± 0.065
same,protein stability index,san1∆,3.05 ± 0.1
same,protein stability index,ubr1∆,3.08 ± 0.15
PEYAKVGDFLLQYANNA [SIN4],protein stability index,doa10∆,2.4 ± 0.085
same,protein stability index,pdr5∆,2.55 ± 0.069
same,protein stability index,san1∆,2.5 ± 0.066
same,protein stability index,ubr1∆,1.97 ± 0.044
PFKFGKTSEKSENHTES [YOR098C/NUP1],protein stability index,doa10∆,2.94 ± 0.16
same,protein stability index,pdr5∆,3.05 ± 0.14
same,protein stability index,san1∆,3.1 ± 0.15
same,protein stability index,ubr1∆,2.92 ± 0.17
PFSFSSATSTTEQTKSK [YLR335W/NUP2],protein stability index,doa10∆,2.99 ± 0.06
same,protein stability index,pdr5∆,2.99 ± 0.058
same,protein stability index,san1∆,2.85 ± 0.075
same,protein stability index,ubr1∆,2.86 ± 0.054
PGHEMEDFLDKSYYLNT [AAR2],protein stability index,doa10∆,3.29 ± 0.07
same,protein stability index,pdr5∆,3.1 ± 0.076
same,protein stability index,san1∆,2.81 ± 0.065
same,protein stability index,ubr1∆,3.11 ± 0.04
PGMPNMPGMPNMPGMPK [SRP54],protein stability index,doa10∆,3.37 ± 0.15
same,protein stability index,pdr5∆,3.22 ± 0.095
same,protein stability index,san1∆,3.21 ± 0.25
same,protein stability index,ubr1∆,3.3 ± 0.071
PGPLPDTDSKPSSQSQN [YLR018C/POM34],protein stability index,doa10∆,3.06 ± 0.079
same,protein stability index,pdr5∆,3.15 ± 0.061
same,protein stability index,san1∆,3.17 ± 0.063
same,protein stability index,ubr1∆,2.98 ± 0.061
PGQKMSLFSHRKHTRGD [BRN1],protein stability index,doa10∆,3.34 ± 0.23
same,protein stability index,pdr5∆,2.95 ± 0.21
same,protein stability index,san1∆,3.31 ± 0.15
same,protein stability index,ubr1∆,3.22 ± 0.062
PHSLATKTTGKCGSVTV [RPS2],protein stability index,doa10∆,1.2 ± 0.12
same,protein stability index,pdr5∆,1.27 ± 0.1
PIDDTMTLLTDSLRKLY [MTW1],protein stability index,doa10∆,1.89 ± 0.067
same,protein stability index,pdr5∆,2.52 ± 0.062
same,protein stability index,san1∆,1.73 ± 0.093
same,protein stability index,ubr1∆,2.22 ± 0.052
PIKNRKNDTHYLLPDDF [BRN1],protein stability index,doa10∆,2.98 ± 0.079
same,protein stability index,pdr5∆,2.93 ± 0.094
same,protein stability index,san1∆,2.85 ± 0.061
same,protein stability index,ubr1∆,2.95 ± 0.058
PIMFQDFDDSTAQEINF [IRR1],protein stability index,doa10∆,2.81 ± 0.057
same,protein stability index,pdr5∆,2.92 ± 0.059
same,protein stability index,san1∆,2.52 ± 0.053
same,protein stability index,ubr1∆,2.88 ± 0.043
PISAVLRGCKFLQSVDI [GRR1],protein stability index,doa10∆,2.08 ± 0.041
same,protein stability index,pdr5∆,2.08 ± 0.053
same,protein stability index,san1∆,1.83 ± 0.052
same,protein stability index,ubr1∆,2.01 ± 0.036
